19 molecules from the FLAb antibody collection (doi:10.1101/2023.12.08.570889) can be followed below.

The Kd is a measure of binding affinity in units of concentration. Lower therefore signals a tighter complex.

This assay concerns the target TSLP, Q969D9. As to the kind of experiment: Kd (SPR).

Changes are numbered by the printed parent chain.

B1: unnamed (protein)
chain 1: QMQLVESGGGVVQPGRSLRLSCAASGFTFRTYGMHWVRQAPGKGLEWVAVIWYDGSNKHYADSVKGRFTITRDNSKNTLNLQMNSLRAEDTAVYYCARSPRYDDYYEAFDVWGQGTMVTVSS
chain 2: SYVLTQPPSVSVAPGQTARITCGGNNLGSKSVHWYQQKPGQAPVLVVYDDSDRPSWIPERFSGSNSGNTATLTISRGEAGDEADYYCQVWDSSSDHVVFGGGTKLTVL
Turning to B1, the dissociation constant (Kd) was 186 nM.

B2: unnamed (protein)
chain 1: B1 chain 1 with S99A, D103Y, D104Y
chain 2: B1 chain 2
As for B2, the equilibrium dissociation constant (Kd) is 52.3 nM.

B3: unnamed (protein)
chain 1: B1 chain 1 with R30S, G33A, S99A, Y106W
chain 2: B1 chain 2
In turn, B3 yielded an equilibrium dissociation constant (Kd) of 718 nM.

B4: unnamed (protein)
chain 1: B1 chain 1 with R30S, Y32F, G33A, S99A, D104E, Y105R
chain 2: B1 chain 2
On to B4, for which the Kd was found to be 366 nM.

B5: unnamed (protein)
chain 1: B1 chain 1 with R30S, Y32F, G33A, S99A, D104E, Y105D, Y106W
chain 2: B1 chain 2
B5 yielded a dissociation constant Kd of 894 nM.

B6: unnamed (protein)
chain 1: B1 chain 1 with R30S, Y32F, G33A, S99A, D104W
chain 2: B1 chain 2
B6 came in with a dissociation constant Kd of 90.8 nM.

B7: unnamed (protein)
chain 1: B1 chain 1 with R30S, G33A, D104E, Y106W
chain 2: B1 chain 2
As for B7, the Kd turned out to be 836 nM.

B8: unnamed (protein)
chain 1: B1 chain 1 with R30S, Y32F, G33A, S99A, D103Y, Y106L
chain 2: B1 chain 2
B8 came in with a dissociation constant (Kd) of 62.6 nM.

B9: unnamed (protein)
chain 1: B1 chain 1 with R30S, G33A, S99A, D104W, Y106W
chain 2: B1 chain 2
In turn, B9 showed a dissociation constant (Kd) of 759 nM.

B10: unnamed (protein)
chain 1: B1 chain 1 with S99A, D104E, Y105H, Y106W
chain 2: B1 chain 2
Consider B10, for which the dissociation constant Kd came to 170 nM.

B11: unnamed (protein)
chain 1: B1 chain 1 with R30S, Y32F, G33A, S99A, D103Y
chain 2: B1 chain 2
B11 had a Kd of 56.8 nM.

B12: unnamed (protein)
chain 1: B1 chain 1 with S99A, Y106V
chain 2: B1 chain 2
For B12, the equilibrium dissociation constant (Kd) came to 44.6 nM.

B13: unnamed (protein)
chain 1: B1 chain 1 with S99A, Y105L, Y106W
chain 2: B1 chain 2
As to B13, the dissociation constant Kd amounted to 61.1 nM.

B14: unnamed (protein)
chain 1: B1 chain 1 with S99A, D104E, Y106L
chain 2: B1 chain 2
On to B14, for which the equilibrium dissociation constant (Kd) amounted to 129 nM.

B15: unnamed (protein)
chain 1: B1 chain 1 with R30S, G33A, S99A, D104E, Y105R
chain 2: B1 chain 2
Molecule B15 displayed a Kd of 686 nM.

B16: unnamed (protein)
chain 1: B1 chain 1 with R30S, Y32F, G33A, S99A, D103Y, D104W
chain 2: B1 chain 2
As to B16, the Kd is 96.6 nM.

B17: unnamed (protein)
chain 1: B1 chain 1 with Y106W
chain 2: B1 chain 2
Molecule B17 came in with a Kd of 197 nM.

B18: unnamed (protein)
chain 1: B1 chain 1 with R30S, Y32F, G33A, D103Y, D104E
chain 2: B1 chain 2
As to B18, the dissociation constant (Kd) stood at 44.5 nM.

B19: unnamed (protein)
chain 1: B1 chain 1 with R30S, G33A, S99A, D104E, Y106W
chain 2: B1 chain 2
On to B19, for which the Kd amounted to 633 nM.
